This assay addresses angiostatin-FLAG-HA (pMB281.1). Kind of assay: ECL sandwich assay on 293 cell lysate, biotinylated anti-FLAG M2 capture.

“anti-FLAG M2 monoclonal antibody (IBI/Kodak)” showed an ECL signal above background (fold above background) of over 2.
